The results in this text go back to PMC4226739 (The Journal of Cell Biology, 2014).

By koff is commonly meant the first-order rate constant of dissociation. A higher koff goes with a short-lived complex.

Test in all cases: FRAP in micropatterns
Assay [1] has as its target STAT2 fused to monomeric EGFP (STAT2-EGFP) (UniProt P52630 1-851).
Assay [2] addresses STAT2 fused to tagRFP-T (STAT2-tagRFP) (UniProt P52630 1-851).
Assay [3] has as its target tyk2 fused to monomeric EGFP (tyk2-EGFP) (UniProt P29597 1-1187).

STAT2 fused to monomeric EGFP (STAT2-EGFP), sequence (P52630 whole entry, the tested form may be a part): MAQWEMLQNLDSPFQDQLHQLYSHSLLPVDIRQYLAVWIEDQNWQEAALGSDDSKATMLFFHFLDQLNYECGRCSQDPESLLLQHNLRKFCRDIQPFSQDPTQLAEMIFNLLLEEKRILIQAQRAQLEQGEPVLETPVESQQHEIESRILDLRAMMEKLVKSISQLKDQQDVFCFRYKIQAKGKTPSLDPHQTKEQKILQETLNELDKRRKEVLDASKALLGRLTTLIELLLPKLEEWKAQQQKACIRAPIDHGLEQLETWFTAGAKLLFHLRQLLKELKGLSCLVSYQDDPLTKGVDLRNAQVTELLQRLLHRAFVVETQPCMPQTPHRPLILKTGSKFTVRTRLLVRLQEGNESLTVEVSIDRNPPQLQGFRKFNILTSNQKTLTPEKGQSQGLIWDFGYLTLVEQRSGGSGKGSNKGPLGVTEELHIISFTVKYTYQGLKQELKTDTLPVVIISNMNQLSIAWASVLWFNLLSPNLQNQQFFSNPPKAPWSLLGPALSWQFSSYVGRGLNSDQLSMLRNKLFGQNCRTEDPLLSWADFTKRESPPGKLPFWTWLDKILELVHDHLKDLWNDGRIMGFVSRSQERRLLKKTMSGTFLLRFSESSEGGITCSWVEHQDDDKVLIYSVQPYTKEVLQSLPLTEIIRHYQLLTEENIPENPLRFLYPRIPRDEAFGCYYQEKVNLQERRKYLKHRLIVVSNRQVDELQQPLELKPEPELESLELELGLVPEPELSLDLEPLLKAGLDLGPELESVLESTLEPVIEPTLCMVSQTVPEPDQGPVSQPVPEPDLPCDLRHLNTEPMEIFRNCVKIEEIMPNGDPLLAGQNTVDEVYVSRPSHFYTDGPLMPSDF
STAT2 fused to tagRFP-T (STAT2-tagRFP), sequence (P52630 whole entry, the tested form may be a part): as above
tyk2 fused to monomeric EGFP (tyk2-EGFP), sequence (P29597 whole entry, the tested form may be a part): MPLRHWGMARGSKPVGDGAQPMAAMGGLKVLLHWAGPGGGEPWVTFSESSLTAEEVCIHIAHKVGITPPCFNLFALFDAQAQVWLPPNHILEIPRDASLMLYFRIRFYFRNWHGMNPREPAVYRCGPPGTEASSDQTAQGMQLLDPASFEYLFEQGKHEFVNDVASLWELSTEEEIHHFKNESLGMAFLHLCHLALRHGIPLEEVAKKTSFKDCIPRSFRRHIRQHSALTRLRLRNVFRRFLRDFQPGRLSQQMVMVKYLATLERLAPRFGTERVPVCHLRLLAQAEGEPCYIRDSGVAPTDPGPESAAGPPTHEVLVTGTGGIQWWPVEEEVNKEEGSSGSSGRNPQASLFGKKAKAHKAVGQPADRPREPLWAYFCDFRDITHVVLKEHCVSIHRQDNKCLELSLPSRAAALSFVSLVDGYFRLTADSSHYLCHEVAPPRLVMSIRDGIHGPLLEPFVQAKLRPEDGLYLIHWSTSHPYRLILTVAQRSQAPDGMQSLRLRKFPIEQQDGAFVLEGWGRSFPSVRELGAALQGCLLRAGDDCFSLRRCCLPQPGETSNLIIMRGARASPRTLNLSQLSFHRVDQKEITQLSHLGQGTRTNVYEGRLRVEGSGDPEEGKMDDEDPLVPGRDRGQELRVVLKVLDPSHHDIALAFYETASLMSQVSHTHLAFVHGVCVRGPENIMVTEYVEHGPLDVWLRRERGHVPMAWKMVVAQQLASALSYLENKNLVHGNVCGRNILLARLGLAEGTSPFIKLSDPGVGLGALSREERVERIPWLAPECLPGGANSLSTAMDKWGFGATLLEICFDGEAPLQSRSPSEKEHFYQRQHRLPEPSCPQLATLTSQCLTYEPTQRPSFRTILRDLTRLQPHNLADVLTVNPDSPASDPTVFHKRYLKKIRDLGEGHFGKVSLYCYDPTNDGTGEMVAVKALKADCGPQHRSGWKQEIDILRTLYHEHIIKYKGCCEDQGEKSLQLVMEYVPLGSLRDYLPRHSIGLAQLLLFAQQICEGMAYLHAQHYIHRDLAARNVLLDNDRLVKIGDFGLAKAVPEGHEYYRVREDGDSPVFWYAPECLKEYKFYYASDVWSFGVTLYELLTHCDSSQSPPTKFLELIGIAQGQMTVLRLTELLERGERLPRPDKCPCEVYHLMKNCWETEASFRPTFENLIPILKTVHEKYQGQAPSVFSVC

B1: HaloTag-IFNAR2 (receptor)
chain: ISYDSPDYTDESCTFKISLRNFRSILSWELKNHSIVPTHYTLLYTIMSKPEDLKVVKNCANTTRSFCDLTDEWRSTHEAYVTVLEGFSGNTTLFSCSHNFWLAIDMSFEPPEFEIVGFTNHINVMVKFPSIVEEELQFDLSLVIEEQSEGIVKKHKPEIKGNMSGNFTYIIDKLIPNTNYCVSVYLEHSDEQAVIKSPLKCTLLPPGQESESAESAKIGGIITVFLIALVLTSTIVTLKWIGYICLRNSLPKVLNFHNFLAWPFPNLPPLEAMDMVEVIYINRKKKVWDYNYDDESDSDTEAAPRTSGGGYTMHGLTVRPLGQASATSTESQLIDPESEEEPDLPEVDVELPTMPKDSPQQLELLSGPCERRKSPLQDPFPEEDYSSTEGSGGRITFNVDLNSVFLRVLDDEDSDDLEAPLMLSSHLEEMVDPEDPDNVQSNHLLASGEGTQPTFPSPSSEGLWSEDAPSDQSDTSESDVDLGDGYIMR
B1: the koff in assay [1] was 0.12 ± 0.05 s⁻¹; in assay [2] it was 0.015 ± 0.005 s⁻¹.

B2: IFNAR1 fused to an N-terminal HaloTag (HaloTag-IFNAR1) (receptor)
chain: KNLKSPQKVEVDIIDDNFILRWNRSDESVGNVTFSFDYQKTGMDNWIKLSGCQNITSTKCNFSSLKLNVYEEIKLRIRAEKENTSSWYEVDSFTPFRKAQIGPPEVHLEAEDKAIVIHISPGTKDSVMWALDGLSFTYSLVIWKNSSGVEERIENIYSRHKIYKLSPETTYCLKVKAALLTSWKIGVYSPVHCIKTTVENELPPPENIEVSVQNQNYVLKWDYTYANMTFQVQWLHAFLKRNPGNHLYKWKQIPDCENVKTTQCVFPQNVFQKGIYLLRVQASDGNNTSFWSEEIKFDTEIQAFLLPPVFNIRSLSDSFHIYIGAPKQSGNTPVIQDYPLIYEIIFWENTSNAERKIIEKKTDVTVPNLKPLTVYCVKARAHTMDEKLNKSSVFSDAVCEKTKPGNTSKIWLIVGICIALFALPFVIYAAKVFLRCINYVFFPSLKPSSSIDEYFSEQPLKNLLLSTSEEQIEKCFIIENISTIATVEETNQTDEDHKKYSSQTSQDSGNYSNEDESESKTSEELQQDFV
Consider B2, for which the koff in assay [3] was approximately 0.0025 s⁻¹.
